# Experimental data: US20240026037A1 (Memorial Sloan Kettering, published 2024)
# Where a chain is given by its changes, count along the chain named.
# T1: Human GPA33 on GPA33+ colorectal cancer cell lines (Colo 205, LS 174T, SW 1222) (human, UniProt Q99795 22-319)
# T1 construct: Endogenous GPA33 on human colorectal cancer cell lines; also called surface human GPA33; GPA33+ tumor cell lines
# T1 sequence: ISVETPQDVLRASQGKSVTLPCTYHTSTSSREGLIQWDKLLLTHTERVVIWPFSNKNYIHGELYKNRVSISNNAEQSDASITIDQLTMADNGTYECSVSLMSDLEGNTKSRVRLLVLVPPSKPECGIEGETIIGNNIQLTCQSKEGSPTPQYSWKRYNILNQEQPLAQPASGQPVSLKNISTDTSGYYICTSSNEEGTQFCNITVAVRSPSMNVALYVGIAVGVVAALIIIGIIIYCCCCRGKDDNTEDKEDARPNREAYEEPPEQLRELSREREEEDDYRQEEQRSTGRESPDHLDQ
# T2: Human GPA33 (recombinant protein, Novoprotein) (human, UniProt Q99795 22-235)
# T2 construct: Bought recombinant protein immobilized on a CM5 chip; also called GPA33 antigen; tumor antigen GPA33
# T2 sequence: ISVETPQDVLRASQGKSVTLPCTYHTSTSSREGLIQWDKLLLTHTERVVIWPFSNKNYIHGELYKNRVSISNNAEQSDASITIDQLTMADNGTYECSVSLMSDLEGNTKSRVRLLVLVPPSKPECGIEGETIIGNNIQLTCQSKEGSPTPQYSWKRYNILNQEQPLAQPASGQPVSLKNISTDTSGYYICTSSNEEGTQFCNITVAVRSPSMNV
# B1: TC160 (bispecific antibody)
# chain: DIQMTQSQSSLSTSVGDRVTITCKASQNVRTVVAWYQQKPGKSPKTLIYLASNRHTGVPSRFSGSGSGTEFTLTISNVQPEDFADYFCLQHWSYPLTFGSGTKLEIKRGGGGSGGGGSGGGGSGGGGSGGGGSGGGGSEVQLVESGGGLVKPGGSLRLSCAASGFAFSTYDMSWVRQAPGKRLEWVATISSGGSYTYYLDSVKGRFTISRDNAKNSLYLQMNSLRAEDTAVYYCAPTTVVPFAYWGQGTLVTVSSGGGGSGGGGSGGGGSGGGGSHVQLVESGGGLVQPGGSLRLSCAASGFSLTDYGVHWVRQAPGKGLEWLGVIWSGGGTAYNTALISRFTISRDNSKNTLYLQMNSLRAEDTAVYYCARRGSYPYNYFDAWGCGTLVTVSSGGGGSGGGGSGGGGSGGGGSGGGGSGGGGSQAVVTQEPSLTVSPGGTVTLTCGSSTGAVTASNYANWVQQKPGQCPRGLIGGHNNRPPGVPARFSGSLLGGKAALTLLGAQPEDEAEYYCALWYSDHWVIGGGTKLTVLGTPLGDTTHTSGKPLDGEYFTLQIRGRERFEMFRELNEALELKDAQAGKEPGGSGGAPHHHHHH
# notes: Previously described GPA33xDOTA SADA clone, with the other VH/VL orientation than TC159; Carries the p53 SADA (tetramerization) domain
# B2: BC155 (bispecific antibody, human IgG1, kappa, N297A)
# heavy: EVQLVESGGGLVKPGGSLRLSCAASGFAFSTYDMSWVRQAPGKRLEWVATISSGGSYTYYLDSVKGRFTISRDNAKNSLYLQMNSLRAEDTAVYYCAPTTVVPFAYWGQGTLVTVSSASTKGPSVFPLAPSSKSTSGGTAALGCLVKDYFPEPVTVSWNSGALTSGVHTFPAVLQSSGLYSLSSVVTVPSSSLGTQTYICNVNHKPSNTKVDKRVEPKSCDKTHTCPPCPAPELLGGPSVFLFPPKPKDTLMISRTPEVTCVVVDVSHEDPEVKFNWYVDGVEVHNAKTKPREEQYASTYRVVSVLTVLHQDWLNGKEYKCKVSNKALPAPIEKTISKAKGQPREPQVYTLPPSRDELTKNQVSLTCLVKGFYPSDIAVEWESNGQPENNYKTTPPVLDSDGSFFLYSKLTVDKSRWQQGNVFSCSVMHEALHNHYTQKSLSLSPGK
# light: DIQMTQSQSSLSTSVGDRVTITCKASQNVRTVVAWYQQKPGKSPKTLIYLASNRHTGVPSRFSGSGSGTEFTLTISNVQPEDFADYFCLQHWSYPLTFGSGTKLEIKRTVAAPSVFIFPPSDEQLKSGTASVVCLLNNFYPREAKVQWKVDNALQSGNSQESVTEQDSKDSTYSLSSTLTLSKADYEKHKVYACEVTHQGLSSPVTKSFNRGECTSGGGGSGGGGSGGGGSHVQLVESGGGLVQPGGSLRLSCAASGFSLTDYGVHWVRQAPGKGLEWLGVIWSGGGTAYNTALISRFTISRDNSKNTLYLQMNSLRAEDTAVYYCARRGSYPYNYFDAWGCGTLVTVSSGGGGSGGGGSGGGGSGGGGSGGGGSGGGGSQAVVTQEPSLTVSPGGTVTLTCGSSTGAVTASNYANWVQQKPGQCPRGLIGGHNNRPPGVPARFSGSLLGGKAALTLLGAQPEDEAEYYCALWYSDHWVIGGGTKLTVLG
# notes: Previously described GPA33xDOTA IgG-[L]-scFv clone; The light chain entry carries the anti-DOTA scFv at its C-terminus
# B3: BC178 (bispecific antibody)
# heavy: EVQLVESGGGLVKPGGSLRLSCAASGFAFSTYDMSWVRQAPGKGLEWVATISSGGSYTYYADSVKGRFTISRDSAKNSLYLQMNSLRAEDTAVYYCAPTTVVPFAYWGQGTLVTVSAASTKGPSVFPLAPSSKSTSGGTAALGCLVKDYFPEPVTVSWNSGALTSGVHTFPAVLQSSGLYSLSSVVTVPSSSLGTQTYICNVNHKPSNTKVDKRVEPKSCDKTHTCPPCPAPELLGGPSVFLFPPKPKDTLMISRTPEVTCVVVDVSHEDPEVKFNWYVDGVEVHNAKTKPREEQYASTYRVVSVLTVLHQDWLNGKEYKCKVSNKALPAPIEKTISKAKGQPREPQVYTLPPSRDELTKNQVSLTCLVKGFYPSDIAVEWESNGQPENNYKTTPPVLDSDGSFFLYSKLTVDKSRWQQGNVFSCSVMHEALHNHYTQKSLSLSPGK
# light: B2 light with Q8P, S43A, T56S, V78L, D85T, F87Y, I106V
# B4: BC105 (bispecific antibody, human IgG1, kappa, N297A)
# heavy: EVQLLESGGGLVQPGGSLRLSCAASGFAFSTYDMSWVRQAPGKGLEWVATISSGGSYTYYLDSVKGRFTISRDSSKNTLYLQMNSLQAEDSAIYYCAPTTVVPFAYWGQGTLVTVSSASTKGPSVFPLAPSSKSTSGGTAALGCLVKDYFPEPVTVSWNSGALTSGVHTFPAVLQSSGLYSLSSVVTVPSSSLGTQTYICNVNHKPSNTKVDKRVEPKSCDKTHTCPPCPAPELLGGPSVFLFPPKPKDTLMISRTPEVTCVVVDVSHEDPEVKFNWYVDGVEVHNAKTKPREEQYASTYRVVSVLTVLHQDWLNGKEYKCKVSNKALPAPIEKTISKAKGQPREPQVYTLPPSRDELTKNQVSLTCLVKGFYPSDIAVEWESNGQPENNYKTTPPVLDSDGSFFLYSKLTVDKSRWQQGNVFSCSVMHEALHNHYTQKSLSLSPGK
# light: DIQMTQSPSSLSVSVGDRVTITCKASQNVRTVVAWYQQKPGLAPKTLIYLASNRHTGVPSRFSGSGSGTDFTFTISSLQPEDIATYFCQQHWSYPLTFGQGTKVEVKRTVAAPSVFIFPPSDEQLKSGTASVVCLLNNFYPREAKVQWKVDNALQSGNSQESVTEQDSKDSTYSLSSTLTLSKADYEKHKVYACEVTHQGLSSPVTKSFNRGECGGGGSGGGGSASHVKLQESGPGLVQPSQSLSLTCTVSGFSLTDYGVHWVRQSPGKGLEWLGVIWSGGGTAYNTALISRLNIYRDNSKNQVFLEMNSLQAEDTAMYYCARRGSYPYNYFDAWGCGTTVTVSSGGGGSGGGGSGGGGSQAVVIQESALTTPPGETVTLTCGSSTGAVTASNYANWVQEKPDHCFTGLIGGHNNRPPGVPARFSGSLIGDKAALTIAGTQTEDEAIYFCALWYSDHWVIGGGTRLTVLG
# notes: Previously described GPA33xDOTA IgG-[L]-scFv clone; The light chain entry carries the anti-DOTA scFv at its C-terminus; also called GPA33 BsAb-IgG (BC105); GPA33 clone BC105 BsAb
# B5: TC234 (bispecific antibody)
# chain: EVQLVESGGGLVDPGGSLRLSCAASGFAFSTYDMSWVRQAPGKGLEWVSTISSGGSYTYYADSVKGRFTISRDNAKNSLYLQMNSLRAEDTAVYYCAPTTVVPFAYWGQGTLVTVSAGGGGSGGGGSGGGGSGGGGSGGGGSGGGGSDIQMTQSPSSLSASVGDRVTITCKASQNVRTVVAWYQQKPGKAPKTLIYLASNRHTGVPSRFSGSGSGTEFTLTISNLQPEDFATYYCLQHWSYPLTFGSGTKLEVKRGGGGSGGGGSGGGGSGGGGSHVQLVESGGGLVQPGGSLRLSCAASGFSLTDYGVHWVRQAPGKGLEWLGVIWSGGGTAYNTALISRFTISRDNSKNTLYLQMNSLRAEDTAVYYCARRGSYPYNYFDAWGCGTLVTVSSGGGGSGGGGSGGGGSGGGGSGGGGSGGGGSQAVVTQEPSLTVSPGGTVTLTCGSSTGAVTASNYANWVQQKPGQCPRGLIGGHNNRPPGVPARFSGSLLGGKAALTLLGAQPEDEAEYYCALWYSDHWVIGGGTKLTVLGTPLGDTTHTSGKPLDGEYFTLQIRGRERFEMFRELNEALELKDAQAGKEPGGSGGAPHHHHHH
# notes: pI variant of TC170 with a single mutation; Carries the p53 SADA (tetramerization) domain; also called GPA33xDOTA SADA; pI variant of TC170
# What was measured:
# [1] = biological target: T1, Human GPA33 on GPA33+ colorectal cancer …; experiment: FACS binding to Colo205 cells (GPA33+)
# [2] = biological target: T2, Human GPA33 (recombinant protein, …); experiment: SPR (Biacore), human GPA33 immobilized on CM5 chip, two-state fit, kd1
# Method in brief: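 The off-rate (kd1) was determined by surface plasmon resonance against immobilised recombinant human GPA33, using a two-state binding model fit. Antibodies were tested on a CM5 chip in a Biacore T100 at five concentrations, from 20 nM in 2-fold serial dilutions. The parent IgG1 was measured at 25° C, and the bispecific formats at 25° C and 37° C.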
# [3] = biological target: T1, Human GPA33 on GPA33+ colorectal cancer …; experiment: flow cytometry, LS 174T cells
# [4] = biological target: T1, Human GPA33 on GPA33+ colorectal cancer …; experiment: flow cytometry, SW 1222 cells
# [5] = biological target: T2, Human GPA33 (recombinant protein, …); experiment: SPR (Biacore), human GPA33 immobilized on CM5 chip, two-state fit
# Protocol: (§1) SPR analysis. Human GPA33 (Novoprotein, Summit, NJ) was immobilized on CM5 chips. Five concentrations of 2-fold serially diluted huA33 IgG1 or huA33-BsAbs (starting at 20 nM) were flowed over the chip using a Biacore™ T100 system (GE Healthcare, Chicago, IL). Binding kinetics of huA33 were measured at 25° C. and binding kinetics of huA33-BsAbs were measured at both 25° C. and 37° C. The sensorgrams were fitted with two state binding model for both to derive kinetic parameters.
# [6] = biological target: T1, Human GPA33 on GPA33+ colorectal cancer …; experiment: flow cytometry, Colo 205 cells; Colo 205 cells
# [7] = biological target: T1, Human GPA33 on GPA33+ colorectal cancer …; experiment: FACS binding to SW1222 cells (GPA33+)
# [8] = biological target: T1, Human GPA33 on GPA33+ colorectal cancer …; experiment: FACS binding to LS174T cells (GPA33+)
# [9] = biological target: T2, Human GPA33 (recombinant protein, …); experiment: SPR (Biacore), human GPA33 immobilized on CM5 chip, two-state fit, ka1
# Protocol: as §1
# [10] = biological target: T2, Human GPA33 (recombinant protein, …); experiment: SPR (Biacore), human GPA33 immobilised on the chip; KD relative to that of TC170
# Method in brief: (§2)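 Recombinant human GPA33 (Novoprotein) was immobilised on a CM5 sensor chip, and antibodies were injected at five concentrations in 2-fold serial dilutions from 20 nM. Affinity (KD) was determined by surface plasmon resonance on a Biacore system, with kinetic fitting of the sensorgrams giving rate constants and KD. Every KD is reported as a ratio to the KD of a reference molecule.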
# [11] = biological target: T2, Human GPA33 (recombinant protein, …); experiment: SPR (Biacore), human GPA33 immobilised on the chip; KD relative to that of BC015
# Method in brief: as §2
# [12] = biological target: T1, Human GPA33 on GPA33+ colorectal cancer …; experiment: FACS titration on SW1222 cells, geometric mean MFI [Cont.]
# [13] = biological target: T1, Human GPA33 on GPA33+ colorectal cancer …; experiment: FACS titration on Colo205 cells, geometric mean MFI
# [14] = biological target: T1, Human GPA33 on GPA33+ colorectal cancer …; experiment: FACS titration on LS174T cells, geometric mean MFI [Cont.]
Binder,"fold change of binding EC50 (relative to TC170, lower is better) [1]",koff [2],IC50 [3],IC50 [4],Kd [5],ka2 [5],kd2 [5],EC50 [6],"fold change of binding EC50 (relative to TC170, lower is better) [7]","fold change of binding EC50 (relative to TC170, lower is better) [8]",kon [9],"Fold change of KD (relative to TC170, lower is better) [10]","Fold change of KD (relative to BC015, lower is better) [11]",EC50 [1],EC50 [12],EC50 [7],EC50 [8],EC50 [13],EC50 [14]
B1,1.62,0.00202 s⁻¹,560 pM,360 pM,51.8 pM,0.00678 s⁻¹,0.000654 s⁻¹,1200 pM,0.22,1.81,3.43e+06 M⁻¹ s⁻¹,3.4,–,–,–,–,–,–,–
B2,–,0.00212 s⁻¹,–,–,171 pM,0.00328 s⁻¹,0.00164 s⁻¹,–,–,–,4.13e+06 M⁻¹ s⁻¹,–,1.45,–,–,–,–,–,–
B3,–,0.000511 s⁻¹,–,–,7.92 pM,0.0541 s⁻¹,0.00504 s⁻¹,–,–,–,5.5e+06 M⁻¹ s⁻¹,–,–,–,–,–,–,–,–
B4,–,0.0236 s⁻¹,–,–,1210 pM,0.00238 s⁻¹,0.000697 s⁻¹,–,–,–,4.43e+06 M⁻¹ s⁻¹,–,10.2,–,–,–,–,–,–
B5,0.96,0.000966 s⁻¹,–,–,12.2 pM,0.00566 s⁻¹,0.000353 s⁻¹,–,1.24,0.68,4.65e+06 M⁻¹ s⁻¹,0.8,–,710 pM,2050 pM,2050 pM,210 pM,710 pM,210 pM
